In US11897928B2, “Conjugates for delivering an anti-cancer agent to nerve cells, methods of use and methods of making thereof” (Manzanita Pharmaceuticals, Inc., priority 2018, dated 2024):

Tests used:
TrkB receptor = test: Bioassay in RGC cultures for TrkB receptor binding; format: cell-based
[1] = Intracisternal delivery of 800-rhBDNF in naïve rats (Spectralis IRAF/IR imaging, NIR microscopy and HE histopathology); format: in vivo
Description: A Dyomics Near InfraRed (NIR) dye 800 was conjugated to rhBDNF (800-rhBDNF) as set forth above. […] Three single doses of 800-rhBDNF were injected midline intracisternally in naïve rats (n=4; n=3 800-rhBDNF, n=1 control, unmodified dye 800 carboxylic acid form). Three test doses of 800-rhBDNF were selected: lowest (5 μL for syringe, at 0.20 concentration=1 μg study article), mid-, and highest (30 μL; upper volume constraint is 50 μL). Images at three timepoints were collected, just prior to treatment, 15 min, and 6 h using two imaging modalities in both eyes (left eye, oculus sinister, OS; right eye, oculus dexter, OD). Imaging and histopathology methods were used to detect 800-rhBDNF in the optic chiasm or optic nerve head.
Two seetings were selected on the Heidelberg Spectralis®. Infrared autofluorescence IRAF; or ICG, to detect indocyanine green, an NIR dye uses a diode laser with a wavelength of 790 nm in the NIR spectrum. A barrier filter at 830 nm separates excitation and fluorescence light and thus, IRAF/ICG detects near IR fluorescence in 800-rhBDNF. […] After dissection, tissues were cryostatted to preserve NIR 800. Two directly contiguous sets of slides were produced from two sections of optic nerve, optic chiasm from brain tissue, and optic nerve head from eyes. HE stain.
Hematoxylin and eosin (HE) stain was applied to one slide set to reveal nerve tissue. NIR microscopy. Using an Olympus IX73 inverted 2-deck microscope with motorized filter cube turret; objective turret; Proscan XYZ stage; a 75 W Xenon burner; and DP80 Dual CCD 12.7 MP camera, NIR images are acquired in two channels at 4× in the FITC channel (detects auto-fluorescence) and ICG channel. The morphology of HE stained slides to those with FITC+NIR images was compared to confirm that NIR 800 had localized to in nerve tissue.

TrkB receptor binding following synthesis (TrkB receptor): TrkB receptor binding remains intact
B1: 800-rhBDNF: Dyomics Near InfraRed (NIR) dye 800 conjugated to rhBDNF (conjugate, UniProt P23560 19-247, looked up)
Neurotrophic factor BDNF …: APMKEANIRGQGGLAYPGVRTHGTLESVNGPKAGSRGLTSLADTFEHVIEELLDEDQKVRPNEENNKDADLYTSRVMLSSQVPLEPPLLFLLEEYKNYLDAANMSMRVRRHSDPARRGELSVCDSISEWVTAADKKTAVDMSGGTVTVLEKVPVSKGQLKQYFYETKCNPMGYTKEGCRGIDKRHWNSQCRTTQSYVRALTMDSKKRIGWRFIRIDTSCVCTLTIKRGR
modifications: Dyomics 800 NIR dye
notes: Dyomics Near InfraRed (NIR) dye 800 conjugated to rhBDNF
localized irritation in the retinas ([1]; intracisternal injection, live imaging at baseline, 15 min and 6 h): No localized irritation in the retinas was observed
distribution of midline injection (both eyes) ([1]; midline intracisternal injection, imaging in OS and OD): distributed bilaterally
transport of 800 dye from the site of injection ([1]; preliminary studies, given intracisternally): transports 800 dye away from the site of injection, via the optic chiasm, to the optic nerve head
localization of NIR 800 dye in nerve tissue (morphology of NIR microscopy compared to HE stain) ([1]; single midline intracisternal injection, histopathology after euthanasia at 6 h, optic chiasm and optic nerve head): localizes the 800 dye and moves the 800 dye away from the injection site via optic chiasm to optic nerve head
